The test addresses Ops*, an active form of opsin which is similar to metarhodopsin II (UniProt P02699).

“Ops*, an active form of opsin which is similar to metarhodopsin II (from UniProt P02699 1-348) (receptor)”: the molar mass of functionally reconstituted scramblase, from the fit of p(≥1 scramblase) versus PPR* (dithionite/NBD-PC scramblase assay on proteoliposomes) was 90800 g/mol.
